{
  "source": "IntAct's records for PubMed 11739743",
  "parents": {"B1": {"name": "Cell cycle protein kinase spo4 (Schizosaccharomyces pombe (strain ATCC 38366 / 972)), Q9UQY9 (parent)", "chain": "MLSMLLPFGNSGVYASDVDREDRPEIAKLVQAFPTIEEDYHVVKLVGAGSFSSVFKAVDRHFDSYDNSYWISSQIEDQMPHDKTKRPKNHFVALKRIYATVLPSRIQTELEMLHELRGSDCVLNMITAVRHQDQVLIVLPFIQHAEFRDFYMKYSLPEIGAYLRDLLKGLAHIDAKGIIHRDIKPGNFAWNPYTQRGVILDFGLAQWQEADAPTENCCVDKLRKLKQEGKYYDYFPFEKTIADPPEGYLLHDPRPTKRADRAGTRGFRAPEVLFRCQNQTSSIDVWSVGVILLCFLTHRYPFFRCEDDIDAIVELAHIFGRNGMSNCALLHGQIWSDNIPTLLDQKHNWLDLIASITKNDENLILETSSDYQVALAIDLLDKLLELHPSKRVKAKTALQHEFFNACGVTRSGFEAENPFRSDFPSTVEQ", "partner": "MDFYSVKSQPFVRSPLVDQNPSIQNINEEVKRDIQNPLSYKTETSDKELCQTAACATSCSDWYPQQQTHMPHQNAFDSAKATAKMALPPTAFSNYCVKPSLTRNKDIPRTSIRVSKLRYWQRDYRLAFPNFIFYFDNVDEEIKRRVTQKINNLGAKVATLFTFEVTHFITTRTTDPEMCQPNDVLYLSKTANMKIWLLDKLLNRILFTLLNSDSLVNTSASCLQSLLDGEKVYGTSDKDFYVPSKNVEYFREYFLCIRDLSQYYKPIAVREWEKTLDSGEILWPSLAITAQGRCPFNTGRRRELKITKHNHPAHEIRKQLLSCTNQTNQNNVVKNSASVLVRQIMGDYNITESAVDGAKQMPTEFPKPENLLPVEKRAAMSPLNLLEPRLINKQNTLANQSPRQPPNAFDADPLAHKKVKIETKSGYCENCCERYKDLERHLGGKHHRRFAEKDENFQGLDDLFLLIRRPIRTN"}},
  "data": [
    {"variants_of": "B1", "details": "with spo6_schpo spo6, Q9Y7J1", "values": [
      {"variant": "K95A", "effect of a mutation on the interaction": "with no effect"}
    ]}
  ]
}
